The target of this test is Neurospora crassa importin-α (residues 75-529) (Neurospora crassa). The test can be described thus: ITC; importin-α (50 μM) in the cell, PAC-3 NLS peptide (500 μM) titrated from the syringe; 20°C; 20 mM Tris-HCl pH 8.0, 100 mM NaCl; single binding site model. For orientation: ITC needs no label: the signal is the heat of the interaction.
Neurospora crassa importin-α (residues 75-529) (Neurospora crassa), sequence (G5EB89 other isoform, or with tags, fused parts or gaps): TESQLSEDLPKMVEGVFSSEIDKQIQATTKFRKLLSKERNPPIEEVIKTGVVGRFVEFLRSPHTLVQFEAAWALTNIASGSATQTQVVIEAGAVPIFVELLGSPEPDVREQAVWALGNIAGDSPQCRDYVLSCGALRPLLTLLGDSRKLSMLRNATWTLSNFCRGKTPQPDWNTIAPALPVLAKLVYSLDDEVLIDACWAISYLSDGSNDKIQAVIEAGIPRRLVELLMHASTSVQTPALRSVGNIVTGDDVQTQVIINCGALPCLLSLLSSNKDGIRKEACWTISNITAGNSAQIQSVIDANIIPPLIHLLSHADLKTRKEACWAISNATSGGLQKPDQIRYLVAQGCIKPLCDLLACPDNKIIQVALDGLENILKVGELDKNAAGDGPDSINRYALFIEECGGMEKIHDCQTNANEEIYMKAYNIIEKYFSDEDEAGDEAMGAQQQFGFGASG

PAC-3 NLS peptide, sequence (peptide): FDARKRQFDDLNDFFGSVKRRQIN

Regarding PAC-3 NLS peptide, the Kd (usually the free concentration of one partner at which half of the binding sites on the other are occupied at equilibrium, for simple one-to-one binding) was 390 nM; the dH was -12.1 kcal/mol; the stoichiometry N (commonly the number of molecules, sites or subunits per partner or assembly) amounted to 1.

Source of the values: PMC4996508.
